Data: US9598497B2, “RSPO3 binding agents and uses thereof” (OncoMed Pharmaceuticals, Inc., priority 2012, dated 2017)

T1: human LGR5 (Homo sapiens, UniProt O75473)
T1 construct: ligating amino acids 22-564 of human LGR5 to an N-terminal FLAG tag; expressed in transfected cells; host or cells: HEK-293
T1 sequence (O75473 22-564): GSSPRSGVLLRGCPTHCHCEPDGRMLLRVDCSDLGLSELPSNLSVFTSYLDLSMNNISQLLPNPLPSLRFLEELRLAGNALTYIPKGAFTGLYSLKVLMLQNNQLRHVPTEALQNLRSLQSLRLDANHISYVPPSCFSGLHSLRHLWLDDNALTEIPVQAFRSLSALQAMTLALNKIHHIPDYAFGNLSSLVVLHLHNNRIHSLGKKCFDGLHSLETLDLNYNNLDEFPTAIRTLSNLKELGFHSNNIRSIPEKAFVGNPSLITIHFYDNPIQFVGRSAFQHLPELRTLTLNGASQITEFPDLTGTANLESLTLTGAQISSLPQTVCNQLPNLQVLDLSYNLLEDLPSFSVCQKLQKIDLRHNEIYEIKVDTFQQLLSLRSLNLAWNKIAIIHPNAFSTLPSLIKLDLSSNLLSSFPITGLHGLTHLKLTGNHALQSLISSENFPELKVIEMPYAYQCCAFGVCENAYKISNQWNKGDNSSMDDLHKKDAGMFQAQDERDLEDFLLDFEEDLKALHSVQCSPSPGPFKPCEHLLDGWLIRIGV

B1: RSPO2: full-length human RSPO2 ligated in-frame to a human Fc region (protein)
chain: QGNRWRRSKRASYVSNPICKGCLSCSKDNGCSRCQQKLFFFLRREGMRQYGECLHSCPSGYYGHRAPDMNRCARCRIENCDSCFSKDFCTKCKVGFYLHRGRCFDECPDGFAPLEETMECVEGCEVGHWSEWGTCSRNNRTCGFKWGLETRTRQIVKKPVKDTIPCPTIAESRRCKMTMRHCPGGKRTPKAKEKRNKKKKRKLIERAQEQHSVFLATDRANQ
modifications: left off: a dimerising Fc or GST
notes: full-length human RSPO2 ligated in-frame to a human Fc region
B2: 131R003: anti-RSPO3 antibody from a mammalian cell antibody library; heavy chain variable region SEQ ID NO:16, light chain variable region SEQ ID NO:17 (antibody, V domains shown)
VH: QVQLKQSGPELVKPGASVKISCKASGYTFTDYSIHWVKQNHGKSLDWIGYIYPSNGDSGYNQKFKNRATLTVDTSYSTAYLEVRRLTFEDSAVYYCATYFANYFDYWGQGTTLTVSSAST
VL: DIVLTQSPASLAVSLGQRATISCKASQSVDYDGDSYMNWYQQKPGQPPKLLIYAASNLESGIPARFSGSGSGTDFTLNIHPVEEEDAATYYCQQSNEDPLTFGAGTKLELKR
modifications: 131R003 Heavy chain variable region; 131R002/131R003 Light chain variable region
B3: RSPO1: full-length human RSPO1 ligated in-frame to a human Fc region (protein)
chain: SRGIKGKRQRRISAEGSQACAKGCELCSEVNGCLKCSPKLFILLERNDIRQVGVCLPSCPPGYFDARNPDMNKCIKCKIEHCEACFSHNFCTKCKEGLYLHKGRCYPACPEGSSAANGTMECSSPAQCEMSEWSPWGPCSKKQQLCGFRRGSEERTRRVLHAPVGDHAACSDTKETRRCTVRRVPCPEGQKRRKGGQGRRENANRNLARKESKEAGAGSRRRKGQQQQQQQGTVGPLTSAGPA
modifications: left off: a dimerising Fc or GST
notes: full-length human RSPO1 ligated in-frame to a human Fc region
B4: h131R010: humanized 131R003 variant, IgG1; heavy chain variable region SEQ ID NO:44, light chain variable region SEQ ID NO:86; ATCC PTA-120420 and PTA-120421 (antibody, V domains shown)
VH: QVQLVQSGAEVKKPGASVKVSCKASGYTFTDYSIHWVRQAPGQGLEWIGYIYPSNGDSGYNQKFKNRVTMTRDTSTSTAYMELSRLRSEDTAVYYCATYFANNFDYWGQGTTLTVSS
VL: DIQMTQSPSSLSASVGDRVTITCKASQSVDYDGDSYMNWYQQKPGKAPKLLIYAASNLESGVPSRFSGSGSGTDFTLTISPVQAEDFATYYCQQSNEDPLTFGAGTKLELKR
modifications: Humanized 131R005/131R007/131R008/ 131R010/131R011 Heavy chain variable region; Humanized 131R010/131R011 Light chain variable region
notes: humanized 131R003 variant, IgG1; ATCC PTA-120420 and PTA-120421
B5: RSPO3: full-length human RSPO3 ligated in-frame to a human Fc region (protein)
chain: QNASRGRRQRRMHPNVSQGCQGGCATCSDYNGCLSCKPRLFFALERIGMKQIGVCLSSCPSGYYGTRYPDINKCTKCKADCDTCFNKNFCTKCKSGFYLHLGKCLDNCPEGLEANNHTMECVSIVHCEVSEWNPWSPCTKKGKTCGFKRGTETRVREIIQHPSAKGNLCPPTNETRKCTVQRKKCQKGERGKKGRERKRKKPNKGESKEAIPDSKSLESSKEIPEQRENKQQQKKRKVQDKQKSVSVSTVH

Legend:
[1] = system: gene sets characteristic of normal stem cells or cancer stem cells; assay: Microarray gene set enrichment analysis of treated OMP-LU102 tumors; type: in vivo, NOD-SCID mice; conditions: RNA from OMP-LU102 tumors after treatment, FIG. 11B
Procedure: RNA was prepared from tumors from each of the four experimental groups following the treatment. Gene expression was characterized by microarray analysis.

human LGR5 = target: T1, human LGR5; assay: FACS binding of RSPO-Fc fusion proteins to LGR5 expressed on HEK-293 cells; conditions: 10 μg/ml Fc fusion protein, FIG. 2
Text: A cell surface LGR5 protein was generated by ligating amino acids 22-564 of human LGR5 to an N-terminal FLAG tag and to the transmembrane domain of CD4 and a C-terminal GFP protein tag using standard recombinant DNA techniques (FLAG-LGR5-CD4TM-GFP). RSPO-Fc constructs were generated using standard recombinant DNA techniques. Specifically, full-length human RSPO1, RSPO2, RSPO3 and RSPO4 were ligated in-frame to a human Fc region and the recombinant RSPO-Fc proteins were expressed in insect cells using baculovirus. The fusion proteins were purified from the insect medium using protein A chromatography.
HEK-293 cells were transiently transfected with the FLAG-LGR5-CD4TM-GFP construct. After 48 hours, transfected cells were suspended in ice cold PBS containing 2% FBS and heparin and incubated on ice in the presence of 10 μg/ml RSPO1-Fc, RSPO2-Fc, RSPO3-Fc, RSPO4-Fc, or FZD8-Fc fusion proteins for 15 minutes. A second incubation with 100 μl PE-conjugated anti-human Fc secondary antibody was performed to detect cells bound by the Fc fusion proteins. Cells were incubated with an anti-FLAG antibody (Sigma-Aldrich, St. Louis, Mo.) as a positive control and with an anti-PE antibody as a negative control. The cells were analyzed on a FACSCalibur instrument (BD Biosciences, San Jose, Calif.) and the data was processed using FlowJo software.

[2] = system: RSPO3-induced β-catenin signaling; assay: TOPflash 6xTCF-luciferase reporter assay in HEK-293 cells with WNT3a and RSPO3; type: cell-based, human
Procedure: HEK-293 cells were transfected with a 6×TCF-luciferase reporter vector (TOPflash, Millipore, Billerica, Mass.). After 24-48 hrs, the transfected HEK-293 cells were incubated with a combination of WNT3a (5 ng/ml) and human RSPO3 (10 ng/ml, R&D BioSystems, Minneapolis, Minn.) in the presence of anti-RSPO3 antibodies 131R002 and 131R003. Antibodies 131R002 and 131R003 were added to the cells in 4-fold serial dilutions from 20 μg/ml to 0.02 μg/ml. As controls, cells were incubated with a combination of WNT3a and RSPO3, WNT3a only, RSPO3 only, or with no addition. The cells were incubated for 16 hours and luciferase activity was measured using Steady-Glo® Luciferase Assay System according to the manufacturer's instructions (Promega, Madison, Wis.).
HEK-293 cells were transfected with a 6×TCF-luciferase reporter vector (TOPflash, Millipore, Billerica, Mass.). After 24-48 hrs, the transfected HEK-293 cells were incubated with a combination of WNT3a and human RSPO3 in the presence of anti-RSPO3 antibodies 131R003, 131R003 CDR1 variant and 131R003 CDR3 variant. 131R003, 131R003 CDR1 variant, and 131R003 CDR3 variant were added to the cells in 5-fold serial dilutions from 20 μg/ml to 0.006 μg/ml. As controls, cells were incubated with a combination of WNT3a and RSPO3, WNT3a only, RSPO3 only, a control antibody, or with no addition. The cells were incubated for 16 hours and luciferase activity was measured using Steady-Glo® Luciferase Assay System according to the manufacturer's instructions (Promega, Madison, Wis.).
HEK-293 cells were transfected with a 6×TCF-luciferase reporter vector (TOPflash, Millipore, Billerica, Mass.). After 24-48 hrs, the transfected HEK-293 cells were incubated with a combination of WNT3a conditioned medium (5 ng/ml) and human RSPO3 (10 ng/ml, R&D BioSystems) in the presence of anti-RSPO3 antibodies 131R002, 131R006B, or 131R007. Antibodies 131R002, 131R006 or 131R007 were added to the cells in 5-fold serial dilutions from 20 μg/ml to 0.0064 μg/ml. As controls, cells were incubated with WNT3a conditioned medium alone, a combination of WNT3a conditioned medium and human RSPO3, or with no addition to cells. The cells were incubated for 16 hours and luciferase activity was measured using Steady-Glo® Luciferase Assay System according to the manufacturer's instructions (Promega, Madison, Wis.).
HEK-293 cells were transfected with a 6×TCF-luciferase reporter vector (TOPflash, Millipore, Billerica, Mass.). […] The cells were incubated for 16 hours and luciferase activity was measured using Steady-Glo® Luciferase Assay System according to the manufacturer's instructions (Promega, Madison, Wis.).

Molecule	binding to LGR5 expressed on the surface of HEK-293 cells (human LGR5)	other results
N.N.O=C([O-])C1(C(=O)[O-])CCC1.[Pt+2] [carboplatin, reference compound]		expression of gene sets characteristic of normal stem cells or cancer stem cells [1]: did not have this effect on gene expression
B1	bound to LGR5	
B2		RSPO3-induced β-catenin signaling ([2]; WNT3a 5 ng/ml + RSPO3 10 ng/ml, antibody 20 to 0.02 μg/ml, FIG. 3): reduced RSPO3-induced β-catenin signaling in a dose-dependent manner
B3	bound to LGR5	
B4		WNT3a/RSPO3-induced β-catenin signaling ([2]; WNT3a conditioned medium 5 ng/ml + human RSPO3 2 ng/ml, antibody 20 to 0.0064 μg/ml, FIG. 13): reduced WNT3a/RSPO3-induced β-catenin signaling in a dose-dependent manner and to a similar extent as h131R007
B5	bound to LGR5	
